Measurements from paper PMC3905752 (Nature chemical biology, 2013).

Target: T1, Cdc34A^FL, full length Cdc34A (residues 1-236) (human, UniProt P49427 1-236)
T1 sequence: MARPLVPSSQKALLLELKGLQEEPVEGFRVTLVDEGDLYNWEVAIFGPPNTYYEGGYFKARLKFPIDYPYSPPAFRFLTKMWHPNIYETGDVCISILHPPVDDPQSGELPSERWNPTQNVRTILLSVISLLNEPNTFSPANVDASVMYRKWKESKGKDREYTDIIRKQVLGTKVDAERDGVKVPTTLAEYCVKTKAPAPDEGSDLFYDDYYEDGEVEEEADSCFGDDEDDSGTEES
Assay: NMR titration

B1: Rbx1^12-108-SSQS, Rbx1 fragment that contains the RING domain (residues 12-108) (domain or fragment)
chain: not shown
**Q.** Does B1 bind?
**A.** binds
